B1: Tesmin, residues 368 to 403; numbered along this chain, Q9Y4I5 (parent)
chain: KGCNCRRSGCLKNYCECYEAQIMCSSICKCIGCKNY

Variants of: B1
Test: abundance fitness (aPCA) (normalised: wild type 0, dead -1); higher = more abundant; growth selection in yeast, the domain comes from the species named
Conditions: Homo sapiens

Abundance fitness: each site, then its substitutions
Q21: H -0.271; T -0.08; W -0.508; V -0.472; P -0.073; K -0.065; E 0.155; N -0.124; G -0.004; D -0.566; R 0.061; A -0.127; C -0.235; L -0.26; M -0.48
C17: P -0.312; Y -0.72; E -0.465; Q -0.205; V -0.415; L -0.288; A -0.36; R -0.444; M -0.575; T -0.689; K -0.337
C28: E -0.157; L -0.738; S -0.169; D -0.3; Y -0.973; W -0.7; Q -0.564; T -0.14; R -0.575; K -0.377; A -0.248; P -0.195; M -0.411; V -0.42; G -0.219
L11: G -0.064; R -0.344; H 0.297; Y -0.656; T -0.079; D -0.428; S -0.134; N -0.243; K -0.025; E 0.05; Q 0.087; C -0.567; P -0.116; M 0.038; I -0.369; W -0.388; A 0.075
M23: P -0.136; K -0.057; H -0.198; A -0.18; S -0.081; G 0.127; W -0.283; V -0.1; L -0.462; T -0.419; R -0.075; D 0.152; E 0.106; Q -0.016
N13: Q -0.061; D -0.092; W -0.755; S -0.181; P -0.258; V -0.619; E -0.061; G -0.045; K -0.075; R -0.218; L -0.266; F -0.613; H -0.871; I -0.398; C -0.558; T -0.297; Y -0.51; M -0.556
S25: V -0.509; L -0.415; M -0.324; F -0.711; W -0.45; K -0.196; T -0.168; G 0.093; H -0.269; A -0.051; E -0.315; D -0.334; C -0.393; P -0.521
C30: G -0.29; R -0.425; M -1.15; K -0.249; I -0.945; V -0.352; A -0.252; S -0.355; L -1; H -0.498; Q -0.196; E -0.226; P -0.209; T -0.468
I22: T 0.109; A 0.004; L -0.073; M -0.423; W -0.365; N 0.551; F -0.088; Q 0.329; R 0.021; C -0.55; P -0.043; S -0.066; K -0.093; E 0.004; G 0.268; V 0.048
A20: M -0.317; W -0.295; Q -0.095; V -0.202; R -0.038; E -0.082; Y -0.367; I -0.696; T -0.196; L -0.199; K -0.337; G 0.065; P -0.292; S -0.049; C -0.442
C15: I -0.809; T -0.382; K -0.295; Y -0.658; W -0.993; R -0.378; A -0.394; E -0.076; F -0.742; H -0.425; G -0.305; L -0.713; S -0.596; D -0.04; V -0.65; P -0.259; M -0.689; Q -0.282

Source: the Human Domainome abundance scans (Beltran et al. 2025)
